T1: human FcγRIIa, type R, extracellular domain, His-tagged (human, UniProt P12318 34-217)
T1 construct: extracellular domain; also called hFcγR IIa R
T1 sequence (looked up): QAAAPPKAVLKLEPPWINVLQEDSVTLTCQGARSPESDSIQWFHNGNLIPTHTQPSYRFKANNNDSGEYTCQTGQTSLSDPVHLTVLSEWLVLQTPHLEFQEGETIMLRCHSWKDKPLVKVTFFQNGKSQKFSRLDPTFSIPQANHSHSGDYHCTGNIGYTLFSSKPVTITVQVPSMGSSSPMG

T2: human FcγRIIa, type H, extracellular domain, His-tagged (human, UniProt P12318 34-217)
T2 construct: extracellular domain; also called hFcγR IIa H
T2 sequence (looked up): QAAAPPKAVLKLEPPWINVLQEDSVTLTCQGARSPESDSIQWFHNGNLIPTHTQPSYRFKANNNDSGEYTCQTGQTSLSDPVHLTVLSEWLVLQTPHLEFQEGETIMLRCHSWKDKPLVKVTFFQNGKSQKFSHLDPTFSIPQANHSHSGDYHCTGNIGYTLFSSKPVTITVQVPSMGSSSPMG

T3: human FcγRIIb extracellular domain, His-tagged (human, UniProt P31994 43-217)
T3 construct: extracellular domain; also called hFcγR IIb
T3 sequence (looked up): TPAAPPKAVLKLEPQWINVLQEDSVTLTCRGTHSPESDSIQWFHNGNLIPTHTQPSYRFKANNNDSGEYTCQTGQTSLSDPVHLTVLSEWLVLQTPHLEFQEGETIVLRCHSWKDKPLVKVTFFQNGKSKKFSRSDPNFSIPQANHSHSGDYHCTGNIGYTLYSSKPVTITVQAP


Columns and labels:
human FcRn = target: T4, human FcRn (human, UniProt P55899 24-290; P61769 21-119); assay: KD of 04H1637-G1m/04L1610-lam1 divided by KD of this antibody; SPR pH 6.0
T4 construct: Prepared by the method of WO 2010/107110; also called hFcRn
Experimental: The interaction between the generated antibodies and human FcRn was analyzed by the following method using Biacore T200. 50 mM Na-Phosphate, 150 mM NaCl, 0.05% Tween20 (pH 6.0) was used as the running buffer, and the assay was performed at 25° C. For the sensor chip, Series S SA (GE Healthcare) chips onto which CaptureSelect Human Fab-lambda Kinetics Biotin Conjugate (Thermo Fisher Scientific) was immobilized were used. The antibodies of interest were captured onto these chips and FcRn diluted in the running buffer was allowed to interact with them. Chips were regenerated with 10 mM Glycine-HCl (pH 1.5) and 25 mM NaOH, and assay was performed by repeatedly capturing antibodies. The dissociation constant for FcRn of each antibody was calculated using the steady state model, using Biacore T200 Evaluation Software 2.0.
“Relative value to KD between G1m and hFcRn” and “Relative value to KD between G1m and hFcγRs” are values obtained by dividing the KD value of 04H1637-G1m/04L1610-lam1 for hFcRn and for each FcγR by the KD value of each variant, respectively. “Relative binding amount” indicates the value obtained by dividing the binding amount of each variant to FcγRIIb by the binding amount of 04H1637-G1m/04L1610-lam1. […] It was shown that all of the generated heterodimerized antibodies had enhanced binding to FcγRIIa and FcγRIIIa as compared with 04H1637-G1m/04L1610-lam1 which has the constant region of native human IgG1. Furthermore, 04H1637-Kn462/04L1610-lam1//04H1637-H1441/04L1610-lam1, 04H1637-Kn462/04L1610-lam1//04H1637-H1445/04L1610-lam1, and 04H1637-Kn461/04L1610-lam1//04H1637-H1443/04L1610-lam1 were all shown to have enhanced binding to FcγRIIa compared to 04H1637-Kn125/04L1610-lam1//04H1637-H1076/04L1610-lam 1 which has the Fc region variant reported in WO 2013/002362.

[1] = target: T5, human FcγRIa extracellular domain, His-tagged (human, UniProt P12314 16-292); assay: KD of 04H1637-G1m/04L1610-lam1 divided by KD of this antibody; SPR pH 7.4
T5 construct: also called hFcγR Ia
T5 sequence (P12314 16-292): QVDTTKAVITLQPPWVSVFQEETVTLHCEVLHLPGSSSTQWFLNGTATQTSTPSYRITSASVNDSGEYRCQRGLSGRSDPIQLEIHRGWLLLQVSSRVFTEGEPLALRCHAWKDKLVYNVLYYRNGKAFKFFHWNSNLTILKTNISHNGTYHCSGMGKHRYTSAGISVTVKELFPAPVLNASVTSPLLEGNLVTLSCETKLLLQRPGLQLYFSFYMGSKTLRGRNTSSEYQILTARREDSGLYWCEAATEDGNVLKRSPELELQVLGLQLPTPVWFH
Experimental: (§1) The interaction between the generated antibodies and human FcγRs was analyzed by the following method using Biacore T200. 50 mM Na-Phosphate, 150 mM NaCl, 0.05% Tween20 (pH 7.4) was used as the running buffer, and the assay was performed at 25° C. For the sensor chips, Series S SA (GE Healthcare) chips onto which CaptureSelect Human Fab-lambda Kinetics Biotin Conjugate (Thermo Fisher Scientific) was immobilized were used. The antibodies of interest were captured onto these chips and each FcγR diluted in the running buffer was allowed to interact with them. Chips were regenerated with 10 mM Glycine-HCl (pH 1.5) and 25 mM NaOH, and assay was performed by repeatedly capturing antibodies. The dissociation constants KD (mol/L) for FcγRs of each antibody were calculated using Biacore T200 Evaluation Software 2.0, using the 1:1 Langmuir binding model for FcγRIa and FcγRIIIa and the steady state affinity model for FcγRIIa. For FcγRIIb, the binding amount of FcγRIIb per unit amount of antibody was calculated by correcting the binding amount of FcγRIIb obtained from the sensorgram obtained by the measurement with the amount of antibody captured onto the chip surface.
(§2) “Relative value to KD between G1m and hFcRn” and “Relative value to KD between G1m and hFcγRs” are values obtained by dividing the KD value of 04H1637-G1m/04L1610-lam1 for hFcRn and for each FcγR by the KD value of each variant, respectively. “Relative binding amount” indicates the value obtained by dividing the binding amount of each variant to FcγRIIb by the binding amount of 04H1637-G1m/04L1610-lam1. […] It was shown that all of the generated heterodimerized antibodies had enhanced binding to FcγRIIa and FcγRIIIa as compared with 04H1637-G1m/04L1610-lam1 which has the constant region of native human IgG1.

[2] = target: T1, human FcγRIIa, type R, extracellular …; assay: as above
Experimental: as §1, §2

[3] = target: T2, human FcγRIIa, type H, extracellular …; assay: as above
Experimental: as §1, §2

[4] = target: T6, human FcγRIIIa, allotype F158, extracellular domain, His-tagged (human, UniProt P08637 17-208); assay: as above
T6 construct: extracellular domain; also called hFcγR IIIa F
T6 sequence (P08637 17-208): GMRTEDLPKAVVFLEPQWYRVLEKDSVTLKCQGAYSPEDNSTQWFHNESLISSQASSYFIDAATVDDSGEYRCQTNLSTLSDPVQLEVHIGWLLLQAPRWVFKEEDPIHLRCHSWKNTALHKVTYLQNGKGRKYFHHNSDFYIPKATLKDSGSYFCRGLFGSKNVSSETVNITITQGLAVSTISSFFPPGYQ
Experimental: as §1, §2

[5] = target: T7, human FcγRIIIa, allotype V158, extracellular domain, His-tagged (human, UniProt P08637 17-208); assay: as above
T7 construct: extracellular domain; also called hFcγR IIIa V
T7 sequence (P08637 17-208 F176V): as the sequence (P08637 17-208) above, with F160V counted along it
Experimental: as §1, §2

[6] = target: T3, human FcγRIIb extracellular domain, …; assay: SPR Biacore T200, 25C, pH 7.4; FcγRIIb at 1000 nM, corrected by captured antibody
Experimental: as §1

[7] = target: T3, human FcγRIIb extracellular domain, …; assay: binding amount of this antibody divided by that of 04H1637-G1m/04L1610-lam1; SPR pH 7.4
Experimental: as §1, §2

| Relative value to KD between G1m and hFcRn (human FcRn) | Relative value to KD between G1m and hFcγRs [1] | Relative value to KD between G1m and hFcγRs [2] | Relative value to KD between G1m and hFcγRs [3] | Relative value to KD between G1m and hFcγRs [4] | Relative value to KD between G1m and hFcγRs [5] | Binding amount [6] | Relative binding amount [7] | Binder |
| --- | --- | --- | --- | --- | --- | --- | --- | --- |
| 0.9 ratio | 1.6 ratio | 13 ratio | 13.9 ratio | 415 ratio | 110 ratio | 0.025 RU per RU of captured antibody | 3.1 ratio | 04H1654-KT462/04L1610-lam1//04H1656-HT445/04L1610-lam1 (antibody, human IgG1, lambda, Heterodimerized IgG1 (IGHG1*03) Fc variant) heavy 1: QVQLVESGGGVVQPGGSLRLSCAASGFTFSSKTMNWVRQAPGKGLEWVSSISTQSHYIYYARSVRGRFTISRDNAKNSLYLQMNSLRAEDTAVYYCARYGKREDMLWVFDYWGQGTLVTVSSASTKGPSVFPLAPSSKSTSGGTAALGCLVKDYFPEPVTVSWNSGALTSGVHTFPAVLQSSGLYSLSSVVTVPSSSLGTQTYICNVNHKPSNTKVDKRVEPKSCDKTHTCPPCPAPEFQWGPMVFLFPPKPKDVLMISRTPEVTCVVVDVSDEEPEVKFNWYVDGVEVHNAKTKPREEQYNATYRVVSVLPVLHQDWLNGKEYKCKVSNDALPAPIEKTISKAKGQPREPQVYTLPPSRKEMTKNQVSLTCLVKGFYPSDIAVEWESNGQPENNYKTTPPVLDSDGSFFLYSKLTVDKSRWQQGNVFSCSVMHEALHNHYTQKSLSLSP heavy 2: QVQLVESGGGVVQPGGSLRLSCAASGFTFSSKTMNWVRQAPGKGLEWVSSISTQSHYIYYAESVRGRFTISRDNAKNSLYLQMNSLRAEDTAVYYCARYGAREDMLWVFDYWGQGTLVTVSSASTKGPSVFPLAPSSKSTSGGTAALGCLVKDYFPEPVTVSWNSGALTSGVHTFPAVLQSSGLYSLSSVVTVPSSSLGTQTYICNVNHKPSNTKVDKRVEPKSCDKTHTCPPCPAPELLAGPSVFLFPPKPKDVLMISRTPEVTCVVVDVSHEEPEVKFNWYVDGVEVHNAKTKPREEQYNATYRVVSVLPVLHQDWLNGKEYKCKVSNDALPKPDEETISKAKGQPREPQVYTLPPSREEMTKNQVSLTCLVKGFYPSDIAVEWESNGQPENNYKTTPPVLDSDGSFFLYSKLTVDKSRWQQGNVFSCSVMHEALHNHYTQESLSLSP light: QSALTQPPSASGSPGQSVTISCEGPSTGVGDYNWVHWYQQHPGKAPKLMIYFTSKKPSGVPDRFSGSKSGNTASLTVSGLQAEDEADYYCQTYAAPLGPMFGGGTKLTVLGQPKAAPSVTLFPPSSEELQANKATLVCLISDFYPGAVTVAWKADSSPVKAGVETTTPSKQSNNKYAASSYLSLTPEQWKSHRSYSCQVTHEGSTVEKTVAPTECS |
| 0.9 ratio | 1.5 ratio | 8.4 ratio | 7.3 ratio | 526 ratio | 156 ratio | 0.025 RU per RU of captured antibody | 3.1 ratio | 04H1654-KT461/04L1610-lam1//04H1656-HT443/04L1610-lam1 (antibody, human IgG1, lambda, Heterodimerized IgG1 (IGHG1*03) Fc variant) heavy 1: QVQLVESGGGVVQPGGSLRLSCAASGFTFSSKTMNWVRQAPGKGLEWVSSISTQSHYIYYARSVRGRFTISRDNAKNSLYLQMNSLRAEDTAVYYCARYGKREDMLWVFDYWGQGTLVTVSSASTKGPSVFPLAPSSKSTSGGTAALGCLVKDYFPEPVTVSWNSGALTSGVHTFPAVLQSSGLYSLSSVVTVPSSSLGTQTYICNVNHKPSNTKVDKRVEPKSCDKTHTCPPCPAPEFQWGPMVFLFPPKPKDVLMISRTPEVTCVVVDVSDEEPEVKFNWYVDGVEVHNAKTKPREEQYNATYRVVSVLPVLHQDWLNGKEYKCKVSNDALPAPEEKTISKAKGQPREPQVYTLPPSRKEMTKNQVSLTCLVKGFYPSDIAVEWESNGQPENNYKTTPPVLDSDGSFFLYSKLTVDKSRWQQGNVFSCSVMHEALHNHYTQKSLSLSP heavy 2: QVQLVESGGGVVQPGGSLRLSCAASGFTFSSKTMNWVRQAPGKGLEWVSSISTQSHYIYYAESVRGRFTISRDNAKNSLYLQMNSLRAEDTAVYYCARYGAREDMLWVFDYWGQGTLVTVSSASTKGPSVFPLAPSSKSTSGGTAALGCLVKDYFPEPVTVSWNSGALTSGVHTFPAVLQSSGLYSLSSVVTVPSSSLGTQTYICNVNHKPSNTKVDKRVEPKSCDKTHTCPPCPAPELLAGPSVFLFPPKPKDVLMISRTPEVTCVVVDVSHEEPEVKFNWYVDGVEVHNAKTKPREEQYNATYRVVSVLPVLHQDWLNGKEYKCKVSNDALPAPEEETISKAKGQPREPQVYTLPPSREEMTKNQVSLTCLVKGFYPSDIAVEWESNGQPENNYKTTPPVLDSDGSFFLYSKLTVDKSRWQQGNVFSCSVMHEALHNHYTQESLSLSP light: QSALTQPPSASGSPGQSVTISCEGPSTGVGDYNWVHWYQQHPGKAPKLMIYFTSKKPSGVPDRFSGSKSGNTASLTVSGLQAEDEADYYCQTYAAPLGPMFGGGTKLTVLGQPKAAPSVTLFPPSSEELQANKATLVCLISDFYPGAVTVAWKADSSPVKAGVETTTPSKQSNNKYAASSYLSLTPEQWKSHRSYSCQVTHEGSTVEKTVAPTECS |

Source: patent US20260092115A1 (Chugai, published 2026)
